The source of these data is the DeepSol protein solubility set.

The series is described as follows: soluble on expression in E. coli; label from the status in PepcDB or PDB records.
For “MGHHHHHHSHMKGFTATLFLWTLIFPSCSGGGGGKAWPTHVVCSDSGLEVLYQSCDPLQDFGFSVEKCSKQLKSNINIRFGIILREDIKELFLDLALMSQGSSVLNFSYPICEAALPKFSFCGRRKGEQIYYAGPVNNPEFTIPQGEYQVLLELYTEKRSTVACANATIMCS”, the “soluble on expression in E. coli” value is recorded as “not soluble”.
For “MGHHHHHHSHMKNSSSVSNTLTNGCVINGHLDFPSTTPLSGMESRNGQCLTGTNGISSGLAPGQPFPSSQGSLCISGTEEPEKTLRANPELCGSLHLNGSPSSCIASRPSWVEDIGDNLYYGHYHGFGDTAESIPELNSVVEHSKSVKVQERYDSAVLGTMHLHHGS”, the “soluble on expression in E. coli” value is given as “soluble”.
The result for “MGHHHHHHSHMKPVKHLLTTSNKSANVPALTTKKGLHNLPLSPELKEKHNAKLIHDKIEPMVLRSPPTGESILRYALPIPSSKTKNLLPEDEMIGKIIKHLKMVVSTLEETYGHCDQNGEEPFVKHEHEELSLSVGDDMNSFLTYCSQFAAQLEEALKEEQNILESLFKWFQWQVNQMEEISKDQTLLQAEPPKPDKTVILNIAEIVRLVQRFEELKNRLKQRSKSSVKVMLSKTMDKENRPEAVKSCEALAQKIEEFLEAHSTDEFKDVSATEPQL” reads “soluble”; that for “MGHHHHHHSHMLSPERLALPDYEYLAQRHVLTYMEDAVCQLLENREDISQYGIARFFTEYFNSVCQGTHILFREFSFVQATPHNRVSFLRAFWRCFRTVGKNGDLLTMKEYHCLLQLLCPDFPLELTQKAARIVLMDDAMDCLMSFSDFLFAFQIQFYYSEFLDSVAAIYEDLLSGKNPNTVIVPTSSSGQHRQRPALGGAGTLEGVEASLFYQCLENLCDRHKYSCPPPALVKEALSNVQRLTFYGFLMALSKHRGINQALGALPDKGDLMHDPAMDEELERLLAQVPGLVNSVTASPEASCLPSRTPPRVGSPWRPLHHSRKVDGESDGSTEETDESET”, “not soluble”; that for “MGHHHHHHSHMLSSNGASKVANSEAMILDKNLESVNSPIEKSSVNYEPSNPSEKGSKKINLSSDQNKSVSESNNDDVMLISVESPNLTTPTTSNPTDTRKITSGNSSNSPNAEVMAVQKKLDSIIDLTKEGLSNCNTESPVSPLESHSKAASNSKETTPLAQNAVQVPESFEHLPPLPEPPAPLPELVDKTRDTLPPQKPELKVKRVFRPNGIALTWNITKINPKCAPVESYHLFLCHENSNNKLIWKKIGEIKALPLPMACTLSQFLASNRYYFTVQSKDIFGRYGPFCDIKSIPGFSENLT”, “soluble”.
In the case of “MGHHHHHHSHMPYLVIEHLEDISEWLLLEYKHVAQWWGDKLIFTNVKPKERKILAEIGSVVTESITKLPVDRSKVIVLDLQAKEELKPEDISEDTIIVVGGILGDAIPRGRTRKLITSKMEGVKVRHIGRPQFSIDGASIIAKLISEGKRLEEIEYEENPTIKLDEFSEITFHYAVPKLNGKLLLTPGLIELQKKELGYLEEDEDDGLIEFFEGKGEL”, the “soluble on expression in E. coli” value was “soluble”.
The result for “MGHHHHHHSHMQTDIHDEPVNLGFGVQFEPDDLYRLRSQFLPLGKIGGKPSWLNPKNLPKSADLLCNVCEKPLCFLMQVSANGGINDPPHAFHRSLFLFVCRNPSCSRTNDAANLKAFRCQLPRANDYYSFDGPMDPDLDGDVADPRAPADGPGLCRICGCSAAKKCAKCQVARYCSQAHQVIDWPAHKLECAKAATDGSITDEPKNPRNAFCFKEFGVEIDQEYMPANLFDGLSDDEGDEEEEEGNDEDETEEEKKARIREFEKFVKENKGKNADMTKEDLDEATAEQPKDIDFDKFNRLVNLQPDQIIRYKRYGQPLRATGLSELPEVVEPCELCGAPRRFEMQLMPHLLSLIDVDAIGQSIDWASVYVYTCSASCQIADDGYAKEFVAKQDFL” reads “soluble”; that for “MGHHHHHHSHMRISPGQINQVRPKLPLLKILHAAGAQGEMFTVKEVMHYLGQYIMVKQLYDQQEQHMVYCGGDLLGELLGRQSFSVKDPSPLYDMLRKNLVTLATATT”, “not soluble”; that for “MGHHHHHHSHMSLSSSACPLLLTLRDHLLQLEQQLCFSLFKIFWQMLVEKLDVYIYQEIILANHFNEGGAAQLQFDMTRNLFPLFSHYCKRPENYFKHIKEACIVLNLNVGSALLLKDVLQSASGQLPATAALNEVGIYKLAQQDVEILLNLRTNWPNTGK”, “not soluble”.
Turning to “MGHHHHHHSHMSPDQFLLTVSALQHARNSGEFAYPCRPQTEITDVWGPSISYPRKVLNFKGKSIQRAVDRLRLSNPPIDVKRTSIPLEIQKLQPNLKISLHSPRAQSTIPEPMIIRSRFSGSLKGGDQVTSSIERAVCSTGPLTSMQVIKPNRMLAPQVGTATLSLKKERPRIYTALDPFRVNAEFVLLTVKEEKEHQEAKMKEYQARESTGVVDPGKASKAAWIRKIKGLPIDNFTKQGKTAAPELGQNVFI”, the “soluble on expression in E. coli” value is “soluble”.
The result for “MGHHHHHHSHMSVPRGPIAQWADGAISPNGHRPQLRAASGEDSTEEALAAAAAPWEGGPVPGVDTSPFAKSLGHSRGEADLFDSGDIFSTGTGSQSVERTKPKAKIAENPANPPVGGKAKSPMFPALGEASSDDDLFQSAKPKPAKKTNPFPLLEDEDDLFTDQKVKKNETKSSSQQDVILTTQDIFEDDIFATEAIKPSQKTREKEKTLESNLFDDNIDIFADLTVKPKEKSKKKVEAKSIFDDDMDDIFSTGIQAKTTKPKSRSAQAAPEPRFEHKVSNIFDDPLNAFGGQ” reads “not soluble”; that for “MGHHHHHHSHMTITSGSSLPDGCEGRGLSVHTDMASVTKAMAAPESGLEVRDRMWLKITIPNAFLGSDVVDWLYHHVEGFPERREARKYASGLLKAGLIRHTVNKITFSEQCYYVFGDLSGGC”, “soluble”; that for “MGHHHHHHSHMTKHPPNRRGISFEVGAQLEARDRLKNWYPAHIEDIDYEEGKVLIHFKRWNHRYDEWFCWDSPYLRPLEKIQLRKEGLHEEDGSSEFQINEQVLACWSDCRFYPAKVTAVNKDGTYTVKFYDGVVQTVKHIHVKAFSKDQNIVGNARPKETDHKSLSSSPDKREKFKEQRKATVNVKKDKEDKPLKTEKRPKQPDKEGKLICSEKGKVSEKSLPKNEKEDKENISENDREYSGDAQKTRQTPFHSSYCCGFKLSNFATNNIGTEKKENIKRM”, “not soluble”.
For “MGHHHHHHSHMTLEEVRGQDTVPESTARMQGAGKALHELLLSAQRQGCLTAGVYESAKVLNVDPDNVTFCVLAAGEEDEGDIALQIHFTLIQAFCCENDIDIVRVGDVQRLAAIVGAGEEAGAPGDLHCILISNPNEDAWKDPALEKLSLFCEESRSVNDWVPSITLPE”, the “soluble on expression in E. coli” value is on record as “soluble”.
The result for “MGHHHHHHSHMTLIYVDADNTRNELKATTGSNFTITHRKDPLTTKWKTVFGNNGDQWLCNVTGIGNATVNSNATICVSSCGHNTLDLCNLKSGDSGFFDLSRWFGENMDEYSGDVWHLEVS” reads “soluble”; that for “MGHHHHHHSHMVGWQEGANHKNGAGRSQKQEMAEKMVPEVASGEEIGGRSEAGRESPDLFRPNTVEARDRPAGPPFSKSASVRVLQRSRTNRDYIPIEHIQSPIGIYNML”, “not soluble”.
The result for “MGHHHHHHSHMVTHSKFPAAGMSRPLDTSLRLKTFSSKSEYQLVVNAVRKLQESGFYWSAVTGGEANLLLSAEPAGTFLIRDSSDQRHFFALSVKTQSGTKNLRIQCEGGSFSLQSDPRSTQPVPRFDCVLKLVYHYMPPPGAPSFPSPPTEPSSEVPEQPSAQPLPGSPPRRAYYIYSGGEKIPLVLSRPLSSNVATLQHLCRKTVNGHLDSYEKVTQLPGPIREFLDQYDAPL” reads “not soluble”.
The result for “MGHHHHHHSHMVTQFKEKNESLQYETSSPTVQLKIPQLRVSSVSKSQPDGSGLLDVMYQVSKTSSVLEGSALQKLKNILPKQNKIECSGPVTHSSVDSYFLHGDLSPLCLNSKNGTVDGTSENTEDGLDRKDSKQPRKKRGRYRQYDHEIMEEAIAMVMSGKMSVSKAQGIYGVPHSTLEYKVKERSGTLKTPPKKKLRLPDTGLYNMTDSGTGSCKNSSKPV” reads “soluble”; that for “MGHHHHHHSHMVVVAAAPNPADGTPKVLLLSGQPASAAGAPAGQALPLMVPAQRGASPEAASGGLPQARKRQRLTHLSPEEKALRRKLKNRVAAQTARDRKKARMSELEQQVVDLEEENQKLLLENQLLREKTHGLVVENQELRQRLGMDALVAEEEAEAKGNEVRPVAGSAESAALRLRAPLQQVQAQLSPLQNISPWILAVLTLQIQSLISCWAFWTTWTQSCSSNALPQSLPAWRSSQRSTQKDPVPYQPPFLCQWGRHQPSWKPLMN”, “not soluble”; that for “MGHHHHHHSHPLKMETSGMTTPSLKTDGGRRTATSPPPTTSQTIISTIPSTAMHTRSTAAPIPILPERGVSLFPYGADAGDLEFVRRTVDFTSPLFKPATGFPLGSSLRDSLYASQAGTLWPWWLRSGTMLTSPLVGGPHFIRNTRRSMVNTAC”, “not soluble”.
For the sequence “MGHHHHHHSHPPCRPCRYKKYVFLDPLAGAVTKTHVMLGAETEEKLFDAPLSISKREQLEQQVGGAGQRWRQVQWPRALPELLSSQGCWALYSTHGRCTQGLVGCPCRSLSPLTCPCLILQVPENYFYVPDLGQVPEIDVPSYLPDLPGIANDLMYIADLGPGIAPSAPGTIPELPTFHTEVAEPLKTYKMGY”, the “soluble on expression in E. coli” value was “not soluble”.
Take “MGHHHHHHSHSMKEENLCQAFSDALLCKIEDIDNEDWENPQLCSDYVKDIYQYLRQLEVLQSINPHFLDGRDINGRMRAILVDWLVQVHSKFRLLQETLYMCVGIMDRFLQVQPVSRKKLQLVGITALLLASKYEEMFSPNIEDFVYITDNAYTSSQIREMETLILKELKFELGRPLPLHFLRRASKAGEVDVEQHTLAKYLMELTLIDYDMVHYHPSKVAAAASCLSQKVLGQGKWNLKQQYYTGYTENEVLEVMQHMAKNVVKVNENLTKFIAIKNKYASSKLLKISMIPQLNSKAVKDLASPLIGRS”: the “soluble on expression in E. coli” value is recorded as “not soluble”.
The result for “MGHHKAMPYADVAAFIIELRKREAVAATALEFTILTAARSGETLGAKWHEIDWKDKIWTVPAERMKAAREHRVPLSSRTITILKKLAEFGSDENSFVFPGQKPGKPLSVMAMDMVLRRMEVDVTVHGFRSSFRDWCGEVSNFPRDVAEAALAHVVGDKTERAYRRGDALEKRRKLMAAWEKFCIAEIKKNPLEHHHHHH” reads “not soluble”; that for “MGHTMPAHTPPAQTAPAAQKAGAQALPVTVQGATVAAVPPSIRDTAAYMTLTNKSDQPIKLVGAATPLATSPMLMTTTHSGGMAGMKMVPWLTIPARGTLTLQRDGDHVMLMGLKRPLKVGETVNITLKATDGRTLNVAATVKKNIEGR”, “soluble”; that for “MGIRELNLTKEQHEWLNGWLELWAHGLSGRLEKRMSSVIAKFMESIEPGRVMTRPMCNDDDGMLISQVVDSVMYIDKKAFGILLSYYAHGSSKHAIASYYHRVARPRKMLCRGGGRIQKPSLATCRREVDEILNASLFMIYPVLDSAFKNRKRVEKIKHVALEHHHHHH”, “soluble”.
The result for “MGIYQWRDKKKPSGGKRRYYYKVKRKYAAGRPPTYTTLSAAEEEERKPVRARGGSYKIKAKKVAFAVVSNPKTGEARKARILRIVETPAHREYARRGIIVKGAVIDTTLGRAVVTSRPGQEGVVNAVLLEEQGQKQLEHHHHHH” reads “soluble”.
